# Measurements: patent US20200140557A1 (published 2020)
# Target: T1, human FGFR1b extracellular domain
# T1 chain: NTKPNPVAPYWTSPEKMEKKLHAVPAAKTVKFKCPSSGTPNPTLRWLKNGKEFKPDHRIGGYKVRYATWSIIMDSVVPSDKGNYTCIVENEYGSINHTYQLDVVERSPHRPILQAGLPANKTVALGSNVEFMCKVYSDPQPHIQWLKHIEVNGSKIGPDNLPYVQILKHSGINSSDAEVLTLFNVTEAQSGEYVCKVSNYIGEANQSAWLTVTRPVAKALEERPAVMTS
# Assay: SPR
row,Binder,Kd [nM]
1,R1MAb1 (antibody) chain 1: EVQLVESGGGLVQPGGSLRLSCAASGFTFTSTWISWVPGKGLEWVGEIDPYDGDTYYADSVKGRFTISADTSKNLQMNSLRAEDTAVYYCASSGYGGSDYAMDYWGQ chain 2: DIQMTQSPSSLSASVGDRVTITCRASQDVSTAVAWYQQKPGKAPKLLIYSASFLYSGVPSRFSGSGSGTDFTLTISSLQPEDFATYYCQQSYTTPPTFGQGTKVEIKR,0.59
2,R1MAb2 (antibody) chain 1: EVQLVESGGGLVQPGGSLRLSCAASGFTFSNNYIHWVPGKGLEWVADIYPNDGDTDYADSVKGRFTISADTSKNLQMNSLRAEDTAVYYCAREHFDAWVHYYVMDYWGQ chain 2: DIQMTQSPSSLSASVGDRVTITCRASQDVSTAVAWYQQKPGKAPKLLIYSASFLYSGVPSRFSGSGSGTDFTLTISSLQPEDFATYYCQQSYTTPPTFGQGTKVEIKR,0.44
